Experimental data from PMC6313988.

Biological target: hypothetical protein ST2166 (putative isocitrate dehydrogenase) from Sulfolobus tokodaii strain 7 (Sulfolobus tokodaii strain 7)
Experiment: crystal structure; hanging-drop crystals of ST2166 (8 mg/mL) in 13% PEG 10,000, 100 mM HEPES pH 7.5, 10°C; space group P21, two monomers in the asymmetric unit; apo form at 2.0 Å and crystal soaked with 25 mM NADP+ at 2.4 Å

Substance: hypothetical protein ST2166 (putative isocitrate dehydrogenase) from Sulfolobus tokodaii strain 7 (enzyme)
- stoichiometry N: 2
